Numbering of substitutions follows the chain as printed. In names and notes the source's numbering stands.
B1: 14H10.2C9-hIgG4 (S228P) (antibody, V domains shown)
VH: QIQLVQSGPELKKPGETVKISCKASGYTFTTYGMGWVKQAPGKDLKWMGWINTYSGVPTYADDFKGRFAFSLETSASTAYLQISNLKNEDTATYFCSTPYEYDGAYWGQGTLVTVSA
VL: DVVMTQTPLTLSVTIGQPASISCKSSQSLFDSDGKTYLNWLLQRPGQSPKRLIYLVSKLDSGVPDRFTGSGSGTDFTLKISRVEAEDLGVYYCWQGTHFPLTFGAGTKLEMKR
notes: also called QC200137; IMTAB0172
B2: 20D11.2C6-hIgG4(S228P) (antibody, V domains shown)
VH: EVQLQQSGPELVKPGASVKISCKASGYTFTDFYINWVKQSHGKSLEWIGDINPKNGGINYNPKFKIKATLTVDKSSSTSYMDLRGLTSEDSAVYYCTSGYGFPYWGQGTLVTVSA
VL: DIQMNQSPSSLSASLGDTITITCRASQNIYIWLSWYQQKPGNIPKLLIYKASNLHTGVPSRFSGSGSGTDFTLTISTLQPEDIATYFCLQGQSYPLTFGAGTKLEMKR
notes: also called QC200083
B3: 15G7.2A7-hIgG4(S228P) (antibody, V domains shown)
VH: B2 VH with F32Y, I34M, K54N, I58T, P62Q, I66G, S79A, D82E, G85S
VL: DIQMNQSPSSLSASLGDTISITCRASQNINIWLSWYQQKPGNIPQLLIYKASNLHTGVPSRFSGSGSGTDFTLTISSLQPEDIATYYCLQGQSYPLTFGAGTKLVMK
notes: also called QC200074
B4: 84712F12-hIgG4(S288P) (antibody, V domains shown)
VH: QIQLVQSGPELKKPGETVKISCKASGYTFTNYGMNWVKQAPGKGLKWMGWINTYTGEPTYVDDFKGRFAFSLETSASTAYLRINNLKNEDTATYFCAKFGNYVGAMDYWGQGTSVTVSS
VL: DIQVIQSPSSLSASLGDTITITCHASQNINVWLSWYQQKPGNIPKLLIYKASNLHTGVPSRFSGSGSGTGFTLTISSLQPEDIATYYCQQGQSYPYTFGGGTKLELK
notes: also called 847.12F12-hIgG4 (S228P); F847C.12F12
B5: 846.1F5-hIgG4(S228P) (antibody, V domains shown)
VH: QIQLVQSGPELKKPGETVKISCKASGYTFTNYGMNWVKQAPGKGLKWMGWINTYTGEPSYADDFKGRFAFSLETSASTAYLQINNLKNEDMATYFCARWGGYDGDYYAMDYWGQGTSVTVSS
VL: NIMMTQSPSSLAVSAGEKVTMSCKSSQSVLYSSNQKNYLAWYQQKPGQSPKLLIYWASTRESGVPDRFTGSGSGTDFTLTISSVQPEDLAVYYCHQYLSSLTFGAGTKLELK
notes: also called F846C.1F5; QC200110
B6: 846T.16B5-hIgG4(S228P) (antibody, V domains shown)
VH: B5 VH with S59A
VL: B5 VL with P86A
notes: also called F846T.16B5; F846TC.16B5
B7: 846T.14A2-hIgG4(S338P) (antibody, V domains shown)
VH: QIQLVQSGPELKKPGETVKISCKASGYTFTNYGMNWVKQAPGKGLKWMGWINTYTGEPTYAGDLKGRFAFSLETSASTAYLQINNLKNEDTATYFCVRYTMDYWGQGTSVTVSS
VL: QAVVTQESALTTSPGETVTLTCRSSTGAVTTSNYANWVQEKPDHLFTGLIGGINNRVPGVPARFSGSLIGDKAALTITGAQTEDEAIYFCALWYSNHWVFGGGTKLTVL
notes: also called F846TC.14A2; QC200122
B8: TB006 (antibody, human IgG4 S228P, kappa, V domains shown)
VH: QVQLVQSGAEVKKPGASVKVSCKASGYSFTNYYMHWVRQAPGQRLEWMGWIYPGSGNTNYNEKFQGRVTITADTSASTAYMELSSLRSEDTAVYYCSTAPGGFDVWGQGTTVTVSS
VL: DIVMTQTPLSLSVTPGQPASISCKSSKSLLHSDGITYLYWYLQKPGQSPQLLIYRMSNLASGVPDRFSGSGSGTDFTLKISRVEAEDVGVYYCAQMLEFPLTFGQGTKLEIKR
notes: also called hTB006; hTB006Ab
B9: TB001 (antibody, V domains shown)
VH: QVQLVQSGSELKKPGASVKVSCKASGYTFTNYGMNWVRQAPGQGLKWMGWINTNTGEPTYVEEFTGRFVFSLETSVSTAYLQISSLKAEDTAVYFCAPYDNFFAYWGQGTTVTVSS
VL: DIVLTQSPLSLPVTPGEPASISCRSSKSLLYKDGKTYLNWFLQKPGQSPQLLIYLMSTHASGVPDRFSGSGSGTDFTLKISRVEAEDVGVYYCQQLVDYPLTFGGGTKLEIK
notes: also called hTB001; IMT001-4-HCLC (TB001)
B10: 846.1H12-hIgG4(S228P) (antibody, V domains shown)
VH: B5 VH with Y32F, M91I, D103A
VL: B5 VL with E17Q, N34S, T69S
notes: also called F846C.1H12; QC200172 IMTAB0196

Target: T1, Human Galectin-3 (Gal3) protein (human, UniProt P17931 1-250)
T1 construct: also called hGal3; rhGal-3
Assay: competition ELISA, hGal3 coated; competitor: biotinylated aggregated alpha-synuclein

T1 sequence (P17931 whole entry): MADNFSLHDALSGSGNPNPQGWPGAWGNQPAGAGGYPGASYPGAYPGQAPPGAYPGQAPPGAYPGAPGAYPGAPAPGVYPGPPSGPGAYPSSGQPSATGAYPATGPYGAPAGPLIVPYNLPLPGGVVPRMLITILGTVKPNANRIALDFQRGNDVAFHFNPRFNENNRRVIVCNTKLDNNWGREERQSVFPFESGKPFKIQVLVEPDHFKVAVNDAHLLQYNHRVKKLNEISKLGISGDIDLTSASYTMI

Binder | blocking efficacy
B1 | > 70%
B2 | > 70%
B3 | > 70%
B4 | > 70%
B5 | > 70%
B6 | > 70%
B7 | > 70%
B8 | > 70%
B9 | > 70%

Target: T1, Human Galectin-3 (Gal3) protein
Assay: competition ELISA, hGal3 coated; competitor: biotinylated hTGFβR2

Binder | blocking efficacy
B1 | > 90%
B10 | > 90%
B8 | > 90%

Source: patent US20250026838A1 (TRUEBINDING, published 2025)
